The target of the assay is T1, histone H4 (in the PARylated nucleosome) (UniProt P62799 1-103).
T1 construct: histone H4 as in the nucleosome m2; The H4 chain of m2, written on its own for the contact with ALC1's C-ATPase lobe; also called H4 tail
Nature of the assay: cryo-EM structure; re-analysis of the public dataset EMPIAR-10739 in CryoSPARC: WT ALC1 with an enzymatically PARylated nucleosome (Widom 601 DNA), sample contained ADP-BeF3; 15,740 particles, global resolution 6.60 Å, domains fitted as rigid bodies. The conditions noted are these: both partners purified.

B1: Amplified in Liver Cancer 1 (ALC1), wild type (enzyme)
chain: MERAGATSRGGQAPGFLLRLHTEGRAEAARVQEQDLRQWGLTGIHLRSYQLEGVNWLAQRFHCQNGCILGDEMGLGKTCQTIALFIYLAGRLNDEGPFLILCPLSVLSNWKEEMQRFAPGLSCVTYAGDKEERACLQQDLKQESRFHVLLTTYEICLKDASFLKSFPWSVLVVDEAHRLKNQSSLLHKTLSEFSVVFSLLLTGTPIQNSLQELYSLLSFVEPDLFSKEEVGDFIQRYQDIEKESESASELHKLLQPFLLRRVKAEVATELPKKTEVVIYHGMSALQKKYYKAILMKDLDAFENETAKKVKLQNILSQLRKCVDHPYLFDGVEPEPFEVGDHLTEASGKLHLLDKLLAFLYSGGHRVLLFSQMTQMLDILQDYMDYRGYSYERVDGSVRGEERHLAIKNFGQQPIFVFLLSTRAGGVGMNLTAADTVIFVDSDFNPQNDLQAAARAHRIGQNKSVKVIRLIGRDTVEEIVYRKAASKLQLTNMIIEGGHFTLGAQKPAADADLQLSEILKFGLDKLLASEGSTMDEIDLESILGETKDGQWVSDALPAAEGGSRDQEEGKNHMYLFEGKDYSKEPSKEDRKSFEQLVNLQKTLLEKASQEGRSLRNKGSVLIPGLVEGSTKRKRVLSPEELEDRQKKRQEAAAKRRRLIEEKKRQKEEAEHKKKMAWWESNNYQSFCLPSEESEPEDLENGEESSAELDYQDPDATSLKYVSGDVTHPQAGAEDALIVHCVDDSGHWGRGGLFTALEKRSAEPRKIYELAGKMKDLSLGGVLLFPVDDKESRNKGQDLLALIVAQHRDRSNVLSGIKMAALEEGLKKIFLAAKKKKASVHLPRIGHATKGFNWYGTERLIRKHLAARGIPTYIYYFPRSKSAVLHSQSSSSSSRQLVP
notes: ALC1 (chromatin remodeler), human, UniProt Q86WJ1; wild type; residues 28-874 are modelled in the map; The sample is that of the public dataset EMPIAR-10739; also called WT ALC1
Regarding B1, the binding result is listed as “binds”.

The values above are taken from publication doi:10.1101/2025.11.10.687450, “ALC1 Finds a New Foothold on the Nucleosome’s Super-Groove” (bioRxiv, 2025).
